Data published in patent US20250388664A1 (BIOARCTIC, published 2025).
Where a chain is given by its changes, count along the chain named. In names and notes the source's numbering stands. Read-outs that look alike come from different tables or passages of the source. One block for each binder: values may come before it.

Legend:
AβpE3-40 monomer [1] = biological target: T1, AβpE3-40 monomer (UniProt P05067 674-711, pyroglutamate at position 3 (N-terminal residue)); experiment: cell-based or functional assay
T1 sequence (P05067 674-711): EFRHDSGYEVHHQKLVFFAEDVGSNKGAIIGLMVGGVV

[2] = biological target: T2, truncated cTfR1 of SEQ ID NO:123 (cynomolgus monkey, UniProt Q5RDH6 122-760 (Pongo abelii entry)); experiment: SPR, FLAG-captured TfR1, bispecific injected, 1:1 fit
T2 construct: also called cynomolgus TfR1
T2 chain: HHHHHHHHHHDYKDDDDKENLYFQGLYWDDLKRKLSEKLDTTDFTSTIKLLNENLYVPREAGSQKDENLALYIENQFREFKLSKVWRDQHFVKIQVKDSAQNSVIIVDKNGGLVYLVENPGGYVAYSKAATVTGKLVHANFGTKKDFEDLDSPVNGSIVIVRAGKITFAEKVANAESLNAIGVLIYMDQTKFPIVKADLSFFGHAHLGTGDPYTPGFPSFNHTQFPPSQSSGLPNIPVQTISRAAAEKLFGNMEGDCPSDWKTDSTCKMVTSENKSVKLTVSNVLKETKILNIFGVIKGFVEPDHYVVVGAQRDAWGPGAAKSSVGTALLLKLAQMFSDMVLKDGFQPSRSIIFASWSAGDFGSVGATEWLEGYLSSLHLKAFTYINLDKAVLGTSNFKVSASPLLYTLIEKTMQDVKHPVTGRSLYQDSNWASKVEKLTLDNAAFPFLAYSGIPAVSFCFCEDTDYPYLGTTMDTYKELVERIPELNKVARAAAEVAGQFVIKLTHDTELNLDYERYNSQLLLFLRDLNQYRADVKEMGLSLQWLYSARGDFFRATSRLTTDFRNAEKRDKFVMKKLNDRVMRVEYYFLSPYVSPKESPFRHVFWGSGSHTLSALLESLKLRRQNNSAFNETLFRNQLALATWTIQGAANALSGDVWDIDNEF
Method: (§1) Binding of the purified bispecific binding molecules produced in Example 47 to human and cynomolgus TfR1 was evaluated using SPR on a Biacore 8K instrument (Cytiva). […] The interaction was measured using the single cycle kinetics method with a contact time of 120 s at a flow rate of 30 μl/min followed by a dissociation time of 600 s. Regeneration of the surface between cycles was done by injecting 10 mM glycine-HCl, pH 1.7. The binding data was fitted to a 1:1 interaction model. The tested molecules were diluted in HBS-EP+ (Cytiva, #BR100669). Experiments were performed at 25° C.

[3] = biological target: T3, truncated hTfR1 of SEQ ID NO:122 (human, UniProt P02786 122-760); experiment: as above
T3 construct: also called human TfR1; Human TfR1
Method: as §1

AβpE3-40 monomer [4] = biological target: T1, AβpE3-40 monomer; experiment: SPR, antibody immobilised, monomer injected, 1:1 fit
Method: Single cycle kinetics with the binding molecules immobilized on a CM5 chip was used to measure binding to the AβpE3-40 monomer. For the measurements, 5 μg/ml of analyte binding molecule was immobilized on the chip. […] Regeneration of the surface between cycles was done by injecting 30 μl 3 M MgCl₂ (Cytiva, cat. No. 29234600). The binding data was fitted to a 1:1 interaction model.

AβpE3-42 protofibrils [5] = biological target: T4, AβpE3-42 protofibrils (UniProt P05067 674-713, pyroglutamate at position 3 (N-terminal residue)); experiment: inhibition ELISA, antigen titrated in solution, AβpE3-40 coat
T4 construct: range 3-42 (Aβ numbering); Soluble aggregates made from AβpE3-42 peptide, purified in the void peak of SEC; also called AβpE3-42 PF
T4 sequence (P05067 674-713): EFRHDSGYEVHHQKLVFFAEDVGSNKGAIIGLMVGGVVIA
Method: (§2) The tested molecules were incubated at a fixed concentration (0.1 μg/ml) with titrating concentrations of the different AβpE3 antigens. After incubation for 45 min at 900 rpm to reach equilibrium, the samples were added to a blocked and washed ELISA plate with an AβpE3-40 coat (0.5 μM). The samples were incubated on the plate for 25 min without shaking followed by washing, incubation with detection antibody, another washing step and finally incubation with alkaline phosphatase substrate.

AβpE3-40 monomer [6] = biological target: T1, AβpE3-40 monomer; experiment: as above
Method: as §2

AβpE3-40 monomer [7] = biological target: T1, AβpE3-40 monomer; experiment: SPR, antibody immobilised, monomer injected, 1:1 fit; remark: listed apart in the source
[8] = biological target: T3, truncated hTfR1 of SEQ ID NO:122; experiment: SPR, FLAG-captured TfR1, bispecific injected, 1:1 fit; remark: listed apart in the source
AβpE3-42 protofibrils [9] = biological target: T4, AβpE3-42 protofibrils; experiment: SPR, protofibrils immobilised, antibody injected, 1:1 fit, apparent
Method: (§3) Single cycle kinetics was also used to measure binding of the antibodies to AβpE3-42 protofibrils. […] Regeneration of the surface between cycles was done by injecting 30 μl 10 mM glycine-HCl pH 1.7. The binding data was fitted to a 1:1 interaction model.
(§4) In all SPR experiments, 1×HBS-EP+ (Cytiva, cat. no. BR100669) was used to dilute antibodies and target antigens. Experiments were performed at 25° C.
(§5) Affinity evaluation and KD determination by surface plasmon resonance: Binding interactions between antigens and antibodies were evaluated by SPR using a Biacore 8K instrument (Cytiva) according to standard procedures.

AβpE3-40 monomer [10] = biological target: T1, AβpE3-40 monomer; experiment: SPR, antibody immobilised, monomer injected, 1:1 fit; remark: listed apart in the source
Method: Single cycle kinetics with the antibodies immobilized on a CM5 chip was used to measure the binding of the antibodies to the AβpE3-40 monomer. For the measurements, 5 μg/ml of analyte antibody was immobilized on the chip. […] Regeneration of the surface between cycles was done by injecting 30 μl 3 M MgCl₂. The binding data was fitted to a 1:1 interaction model.
as §4, §5

AβpE3-42 protofibrils [11] = biological target: T4, AβpE3-42 protofibrils; experiment: SPR, protofibrils immobilised, antibody injected, 1:1 fit, apparent; binding to AβpE3-42 protofibrils; KD in pM
Method: as §3, §4, §5

AβpE3-28 monomer = biological target: T5, AβpE3-28 monomer (UniProt P05067 674-699, pyroglutamate at position 3 (N-terminal residue)); experiment: inhibition ELISA, antigen titrated in solution, AβpE3-40 coat
T5 construct: range 3-28 (Aβ numbering)
T5 sequence (P05067 674-699): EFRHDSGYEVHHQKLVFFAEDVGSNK
Method: (§6) The humanized antibodies were incubated at a fixed concentration (0.5 μg/ml) with titrating concentrations of the different Aβ antigens. After incubation for 45 min at 900 rpm to reach equilibrium, the antibody-Aβ samples were added to a blocked and washed ELISA plate with an AβpE3-40 coat (0.5 μM). The samples were incubated on the plate for 25 min without shaking followed by washing, incubation with detection antibody, another washing step and finally incubation with alkaline phosphatase substrate.

Aβ3-28 monomer = biological target: T6, Aβ3-28 monomer (UniProt P05067 674-699); experiment: as above
T6 construct: range 3-28 (Aβ numbering)
Method: as §6

Aβ1-42 protofibrils = biological target: T7, Aβ1-42 protofibrils (UniProt P05067 672-713); experiment: as above
T7 construct: range 1-42 (Aβ numbering); Soluble aggregates made from Aβ1-42 monomer
T7 sequence (P05067 672-713): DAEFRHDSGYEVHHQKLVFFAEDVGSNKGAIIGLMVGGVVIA

AβpE3-42 protofibrils [12] = biological target: T4, AβpE3-42 protofibrils; experiment: as above; remark: listed apart in the source
Aβ1-40 monomer = biological target: T8, Aβ1-40 monomer (UniProt P05067 672-711); experiment: as above
T8 construct: range 1-40 (Aβ numbering)
T8 sequence (P05067 672-711): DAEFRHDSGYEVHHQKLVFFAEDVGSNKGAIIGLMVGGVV

AβpE3-40 monomer [13] = biological target: T1, AβpE3-40 monomer; experiment: as above; remark: listed apart in the source

Uptake of AβpE3-40 monomers in THP-1 cells, EC50 (AβpE3-40 monomer [1]): 2 nM | Kd [2]: 525 nM | koff [2]: 0.01 s⁻¹ | kon [2]: 19000 M⁻¹ s⁻¹ | Kd [3]: 190 nM | koff [3]: 0.0042 s⁻¹ | kon [3]: 22000 M⁻¹ s⁻¹ | Kd (AβpE3-40 monomer [4]): 2.17 nM | koff (AβpE3-40 monomer [4]): 0.00012 s⁻¹ | kon (AβpE3-40 monomer [4]): 55800 M⁻¹ s⁻¹ | IC50 (AβpE3-42 protofibrils [5]): 3.1 nM | IC50 (AβpE3-40 monomer [6]): 1.1 nM | Kd (AβpE3-40 monomer [7]): 2.1 nM | koff (AβpE3-40 monomer [7]): 0.00011 s⁻¹ | kon (AβpE3-40 monomer [7]): 54000 M⁻¹ s⁻¹ | Kd [8]: 174 nM | koff [8]: 0.0038 s⁻¹ | kon [8]: 22000 M⁻¹ s⁻¹
B1: BA001 (bispecific antibody, human IgG1, kappa)
light: EIVLTQSPLSLSVTLGQSASISCRSSQSLLDSNGKTYLHWFILRPGQSPRRLIYLVSILDSGVPDRFSGSGSGTDFTLKISRVEAEDVGVYYCVQGTHFPFTFGSGTKLEIKRTVAAPSVFIFPPSDEQLKSGTASVVCLLNNFYPREAKVQWKVDNALQSGNSQESVTEQDSKDSTYSLSSTLTLSKADYEKHKVYACEVTHQGLSSPVTKSFNRGEC
heavy 1: not shown
heavy 2: EVQLVQSGAEVVKPGASVRLSCKASGYSFTGFTMNWVRQALGQGLEWMGLINPYNGVTTYNQKFKGRLTMTRDMSTRTVYMDLSSLTYEDTAVYYCTREGNWEGVYWGQGTLVTVSSASTKGPSVFPLAPSSKSTSGGTAALGCLVKDYFPEPVTVSWNSGALTSGVHTFPAVLQSSGLYSLSSVVTVPSSSLGTQTYICNVNHKPSNTKVDKKVEPKSCDKTHTCPPCPAPELLGGPSVFLFPPKPKDTLMISRTPEVTCVVVDVSHEDPEVKFNWYVDGVEVHNAKTKPREEQYNSTYRVVSVLTVLHQDWLNGKEYKCAVSNKALPAPIEKTISKAKGQPREPQVYTLPPCRDELTKNQVSLWCLVKGFYPSDIAVEWESNGQPENNYKTTPPVLDSDGSFFLYSKLTVDKSRWQQGNVFSCSVMHEALHNHYTQKSLSLSPGGGGGSGGGGSGGGGSGGGGSDIQMTQSPSSVSASVGDRVTITCKSSQSLLYSTNQKNYLAWYQQKPGKAPKLLIYWASTRESGVPSRFSGSGSGTDFTLTISSLQPEDFATYYCQQYFIYPRTFGCGTKVEIKGGGGSGGGGSGGGGSGGGGSEVQLVQSGAEVKKPGSSVKVSCKASGYIFTDYNMDWVRQAPGQCLEWIGDINPDADTTSYNEKFKGRATLTVDKSTSTAYMELSSLRSEDTAVYYCARGGYSGSSYYHPMDYWGQGTLVTVSS

koff (AβpE3-42 protofibrils [9]): 1.62e-05 s⁻¹ | kon (AβpE3-42 protofibrils [9]): 81100 M⁻¹ s⁻¹ | Kd (AβpE3-40 monomer [10]): 2.2 nM | koff (AβpE3-40 monomer [10]): 0.00012 s⁻¹ | kon (AβpE3-40 monomer [10]): 56200 M⁻¹ s⁻¹ | Kd (AβpE3-42 protofibrils [11]): 0.2 nM | IC50 (AβpE3-28 monomer): 5 nM | IC50 (Aβ3-28 monomer): 2260 nM | IC50 (Aβ1-42 protofibrils): > 132 nM | IC50 (AβpE3-42 protofibrils [12]): 3.71 nM | IC50 (Aβ1-40 monomer): > 500 nM | IC50 (AβpE3-40 monomer [13]): 2.27 nM
B2: H2L7-K12V/R83T (antibody, human IgG1, kappa)
heavy: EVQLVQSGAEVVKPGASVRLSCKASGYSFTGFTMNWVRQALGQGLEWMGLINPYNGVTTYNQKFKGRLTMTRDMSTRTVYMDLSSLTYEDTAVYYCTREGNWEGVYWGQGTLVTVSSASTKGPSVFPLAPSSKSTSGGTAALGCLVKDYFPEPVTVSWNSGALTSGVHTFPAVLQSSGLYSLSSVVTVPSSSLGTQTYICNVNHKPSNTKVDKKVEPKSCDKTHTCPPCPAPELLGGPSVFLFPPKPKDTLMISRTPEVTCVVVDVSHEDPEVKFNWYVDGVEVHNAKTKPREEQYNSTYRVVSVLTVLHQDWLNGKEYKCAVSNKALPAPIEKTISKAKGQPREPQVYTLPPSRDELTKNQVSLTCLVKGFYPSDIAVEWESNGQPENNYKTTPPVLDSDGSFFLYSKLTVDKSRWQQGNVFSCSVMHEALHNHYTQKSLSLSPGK
light: B1 light
notes: VH variant of H2L7; VL and constant domains identical to H2L7

Kd (AβpE3-40 monomer [4]): 2.38 nM | koff (AβpE3-40 monomer [4]): 0.000127 s⁻¹ | kon (AβpE3-40 monomer [4]): 53500 M⁻¹ s⁻¹ | IC50 (AβpE3-42 protofibrils [5]): 3.2 nM | IC50 (AβpE3-40 monomer [6]): 0.8 nM | Kd [8]: 35.6 nM | koff [8]: 0.0031 s⁻¹ | kon [8]: 87000 M⁻¹ s⁻¹
B3: BA002 (bispecific antibody, human IgG1, kappa)
light: B1 light
heavy 1: not shown
heavy 2: B1 heavy 2 with Y497A, A654Y
